Values of other authors as cited in paper PMC3727217.

Target: His87 (UniProt position 88, YGATGHPGIIP)
Test: NMR
Settings: not stated (context implies ligand-free FKBP12; ref 47 studied both the absence and presence of ligands)

Substance: FK506-binding protein FKBP12 (peptidyl-prolyl cis-trans isomerase FKBP1A) (Homo sapiens)
- pKa: 5.92
